Biological target: T1, bacteriophage phi29 DNA packaging ATPase gp16 (bacteriophage phi29), P11014
T1 chain: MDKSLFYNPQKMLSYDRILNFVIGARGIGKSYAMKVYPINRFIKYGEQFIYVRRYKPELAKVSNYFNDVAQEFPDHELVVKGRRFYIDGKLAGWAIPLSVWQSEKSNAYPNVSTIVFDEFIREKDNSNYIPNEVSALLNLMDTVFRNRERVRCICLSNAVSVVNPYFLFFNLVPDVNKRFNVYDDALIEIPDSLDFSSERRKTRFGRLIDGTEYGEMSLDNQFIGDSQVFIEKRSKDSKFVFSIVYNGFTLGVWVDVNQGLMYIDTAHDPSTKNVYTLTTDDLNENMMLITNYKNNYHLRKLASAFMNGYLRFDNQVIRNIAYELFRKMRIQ
Test: cryo-EM structure
Details: remark: other sources report otherwise

B1: bacteriophage phi29 DNA packaging ATPase gp16, P11014 1-332 (enzyme)
chain: T1 chain
stoichiometry N: 5

Reference: article PMC8104870
